Reference: the supplement of paper PMC10567573

B1: SPATS1 (parent)
chain: GRKKYDIDPRNGIPKLTPGDNPYM

Variants of: B1
Assay: protein stability index of a GFP-peptide fusion (GPS, HEK-293T) (PSI 1-6); higher = more stable
Settings: c terminus: a fixed tail appended
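Further: lentivirally expressed fusions sorted by FACS into six bins by GFP to DsRed ratio, PSI derived from sequencing read proportions per bin multiplied by bin number.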

Variant	protein stability index
GRKKYDILPRNGIPKLTPGDNPYM [D8L]	3.16
GRKKYDIMPRNGIPKLTPGDNPYM [D8M]	3.18
GRKKYDIEPRNGIPKLTPGDNPYM [D8E]	3.72
GRKKYDIQPRNGIPKLTPGDNPYM [D8Q]	3.83
GRKKYDIFPRNGIPKLTPGDNPYM [D8F]	2.84
GRKKYDIKPRNGIPKLTPGDNPYM [D8K]	3.14
GRKKYDIWPRNGIPKLTPGDNPYM [D8W]	2.68
GRKKYDICPRNGIPKLTPGDNPYM [D8C]	3.1
GRKKYDISPRNGIPKLTPGDNPYM [D8S]	3.33
GRKKYDIGPRNGIPKLTPGDNPYM [D8G]	2.93
GRKKYDITPRNGIPKLTPGDNPYM [D8T]	3.56
GRKKYDIYPRNGIPKLTPGDNPYM [D8Y]	2.68
GRKKYDIVPRNGIPKLTPGDNPYM [D8V]	3.08
GRKKYDIAPRNGIPKLTPGDNPYM [D8A]	3.02
GRKKYDIPPRNGIPKLTPGDNPYM [D8P]	3.42
GRKKYDINPRNGIPKLTPGDNPYM [D8N]	3.12
GRKKYDIHPRNGIPKLTPGDNPYM [D8H]	2.82
GRKKYDIIPRNGIPKLTPGDNPYM [D8I]	3.08
GRKKYDIRPRNGIPKLTPGDNPYM [D8R]	3.08
GRKKYDIDWRNGIPKLTPGDNPYM [P9W]	2.52
GRKKYDIDQRNGIPKLTPGDNPYM [P9Q]	3.67
GRKKYDIDDRNGIPKLTPGDNPYM [P9D]	3.99
GRKKYDIDKRNGIPKLTPGDNPYM [P9K]	3.27
GRKKYDIDYRNGIPKLTPGDNPYM [P9Y]	2.99

Variant	protein stability index
GRKKYDIDERNGIPKLTPGDNPYM [P9E]	4.19
GRKKYDIDARNGIPKLTPGDNPYM [P9A]	3.44
GRKKYDIDVRNGIPKLTPGDNPYM [P9V]	3.36
GRKKYDIDNRNGIPKLTPGDNPYM [P9N]	3.49
GRKKYDIDMRNGIPKLTPGDNPYM [P9M]	3.28
GRKKYDIDLRNGIPKLTPGDNPYM [P9L]	3.24
GRKKYDIDGRNGIPKLTPGDNPYM [P9G]	3.52
GRKKYDIDSRNGIPKLTPGDNPYM [P9S]	3.85
GRKKYDIDIRNGIPKLTPGDNPYM [P9I]	3.69
GRKKYDIDRRNGIPKLTPGDNPYM [P9R]	3.74
GRKKYDIDCRNGIPKLTPGDNPYM [P9C]	3.72
GRKKYDIDHRNGIPKLTPGDNPYM [P9H]	3.79
GRKKYDIDFRNGIPKLTPGDNPYM [P9F]	2.8
GRKKYDIDTRNGIPKLTPGDNPYM [P9T]	3.62
GRKKYDKDPRNGIPKLTPGDNPYM [I7K]	4.19
GRKKYDEDPRNGIPKLTPGDNPYM [I7E]	4.5
GRKKYDVDPRNGIPKLTPGDNPYM [I7V]	3.83
GRKKYDADPRNGIPKLTPGDNPYM [I7A]	3.53
GRKKYDFDPRNGIPKLTPGDNPYM [I7F]	3.11
GRKKYDDDPRNGIPKLTPGDNPYM [I7D]	4.21
GRKKYDTDPRNGIPKLTPGDNPYM [I7T]	3.75
GRKKYDNDPRNGIPKLTPGDNPYM [I7N]	3.86
GRKKYDSDPRNGIPKLTPGDNPYM [I7S]	4.25
GRKKYDLDPRNGIPKLTPGDNPYM [I7L]	3.39

Variant	protein stability index
GRKKYDRDPRNGIPKLTPGDNPYM [I7R]	4.22
GRKKYDHDPRNGIPKLTPGDNPYM [I7H]	3.81
GRKKYDQDPRNGIPKLTPGDNPYM [I7Q]	4.17
GRKKYDPDPRNGIPKLTPGDNPYM [I7P]	3.71
GRKKYDGDPRNGIPKLTPGDNPYM [I7G]	4.08
GRKKYDCDPRNGIPKLTPGDNPYM [I7C]	3.93
GRKKYDWDPRNGIPKLTPGDNPYM [I7W]	2.91
GRKKYDYDPRNGIPKLTPGDNPYM [I7Y]	3.45
GRKKYDMDPRNGIPKLTPGDNPYM [I7M]	2.98
GRKKYDIDPRNTIPKLTPGDNPYM [G12T]	3.22
GRKKYDIDPRNMIPKLTPGDNPYM [G12M]	3.08
GRKKYDIDPRNLIPKLTPGDNPYM [G12L]	3.09
GRKKYDIDPRNQIPKLTPGDNPYM [G12Q]	3.72
GRKKYDIDPRNIIPKLTPGDNPYM [G12I]	2.77
GRKKYDIDPRNEIPKLTPGDNPYM [G12E]	3.97
GRKKYDIDPRNSIPKLTPGDNPYM [G12S]	3.57
GRKKYDIDPRNYIPKLTPGDNPYM [G12Y]	2.8
GRKKYDIDPRNHIPKLTPGDNPYM [G12H]	3.32
GRKKYDIDPRNVIPKLTPGDNPYM [G12V]	3.46
GRKKYDIDPRNNIPKLTPGDNPYM [G12N]	3.21
GRKKYDIDPRNWIPKLTPGDNPYM [G12W]	2.83
GRKKYDIDPRNRIPKLTPGDNPYM [G12R]	3.42
GRKKYDIDPRNAIPKLTPGDNPYM [G12A]	3.66
GRKKYDIDPRNDIPKLTPGDNPYM [G12D]	3.3

Variant	protein stability index
GRKKYDIDPRNCIPKLTPGDNPYM [G12C]	2.48
GRKKYDIDPRNPIPKLTPGDNPYM [G12P]	3.9
GRKKYDIDPRNFIPKLTPGDNPYM [G12F]	3.34
GRKKYDIDPRNKIPKLTPGDNPYM [G12K]	3.58
GRKKYDIDPRNGEPKLTPGDNPYM [I13E]	4.45
GRKKYDIDPRNGVPKLTPGDNPYM [I13V]	3.82
GRKKYDIDPRNGLPKLTPGDNPYM [I13L]	3.64
GRKKYDIDPRNGCPKLTPGDNPYM [I13C]	3.82
GRKKYDIDPRNGAPKLTPGDNPYM [I13A]	4.14
GRKKYDIDPRNGTPKLTPGDNPYM [I13T]	3.72
GRKKYDIDPRNGYPKLTPGDNPYM [I13Y]	2.81
GRKKYDIDPRNGKPKLTPGDNPYM [I13K]	3.9
GRKKYDIDPRNGPPKLTPGDNPYM [I13P]	3.86
GRKKYDIDPRNGMPKLTPGDNPYM [I13M]	3.36
GRKKYDIDPRNGDPKLTPGDNPYM [I13D]	4.92
GRKKYDIDPRNGFPKLTPGDNPYM [I13F]	3.99
GRKKYDIDPRNGQPKLTPGDNPYM [I13Q]	3.68
GRKKYDIDPRNGNPKLTPGDNPYM [I13N]	4.1
GRKKYDIDPRNGGPKLTPGDNPYM [I13G]	3.78
GRKKYDIDPRNGRPKLTPGDNPYM [I13R]	3.58
GRKKYDIDPRNGWPKLTPGDNPYM [I13W]	3.44
GRKKYDIDPRNGSPKLTPGDNPYM [I13S]	3.88
GRKKYDIDPRNGHPKLTPGDNPYM [I13H]	4.04
GRKKYDIDPRGGIPKLTPGDNPYM [N11G]	3.53

Variant	protein stability index
GRKKYDIDPRPGIPKLTPGDNPYM [N11P]	3.8
GRKKYDIDPRVGIPKLTPGDNPYM [N11V]	3.28
GRKKYDIDPRSGIPKLTPGDNPYM [N11S]	3.6
GRKKYDIDPRFGIPKLTPGDNPYM [N11F]	3.34
GRKKYDIDPRWGIPKLTPGDNPYM [N11W]	2.48
GRKKYDIDPRDGIPKLTPGDNPYM [N11D]	3.87
GRKKYDIDPRLGIPKLTPGDNPYM [N11L]	3.06
GRKKYDIDPRYGIPKLTPGDNPYM [N11Y]	4.13
GRKKYDIDPRKGIPKLTPGDNPYM [N11K]	3.59
GRKKYDIDPRQGIPKLTPGDNPYM [N11Q]	3.41
GRKKYDIDPRTGIPKLTPGDNPYM [N11T]	3.46
GRKKYDIDPREGIPKLTPGDNPYM [N11E]	3.82
GRKKYDIDPRIGIPKLTPGDNPYM [N11I]	3.22
GRKKYDIDPRHGIPKLTPGDNPYM [N11H]	3.54
GRKKYDIDPRCGIPKLTPGDNPYM [N11C]	2.77
GRKKYDIDPRMGIPKLTPGDNPYM [N11M]	3.17
GRKKYDIDPRAGIPKLTPGDNPYM [N11A]	3.05
GRKKYDIDPRRGIPKLTPGDNPYM [N11R]	3.28
GRKKYDIDPRNGIPILTPGDNPYM [K15I]	3.69
GRKKYDIDPRNGIPFLTPGDNPYM [K15F]	2.97
GRKKYDIDPRNGIPSLTPGDNPYM [K15S]	3.69
GRKKYDIDPRNGIPELTPGDNPYM [K15E]	4.33
GRKKYDIDPRNGIPHLTPGDNPYM [K15H]	3.55
GRKKYDIDPRNGIPCLTPGDNPYM [K15C]	3.04

Variant	protein stability index
GRKKYDIDPRNGIPDLTPGDNPYM [K15D]	3.88
GRKKYDIDPRNGIPLLTPGDNPYM [K15L]	3.29
GRKKYDIDPRNGIPMLTPGDNPYM [K15M]	3.69
GRKKYDIDPRNGIPYLTPGDNPYM [K15Y]	2.96
GRKKYDIDPRNGIPWLTPGDNPYM [K15W]	1.98
GRKKYDIDPRNGIPGLTPGDNPYM [K15G]	2.81
GRKKYDIDPRNGIPALTPGDNPYM [K15A]	3.64
GRKKYDIDPRNGIPRLTPGDNPYM [K15R]	3.63
GRKKYDIDPRNGIPQLTPGDNPYM [K15Q]	4.05
GRKKYDIDPRNGIPVLTPGDNPYM [K15V]	3.29
GRKKYDIDPRNGIPPLTPGDNPYM [K15P]	3.62
GRKKYDIDPRNGIPTLTPGDNPYM [K15T]	3.78
GRKKYDIDPRNGIPNLTPGDNPYM [K15N]	3.49
GRKKYLIDPRNGIPKLTPGDNPYM [D6L]	2.84
GRKKYNIDPRNGIPKLTPGDNPYM [D6N]	3.36
GRKKYRIDPRNGIPKLTPGDNPYM [D6R]	3.11
GRKKYPIDPRNGIPKLTPGDNPYM [D6P]	3.49
GRKKYWIDPRNGIPKLTPGDNPYM [D6W]	2.38
GRKKYGIDPRNGIPKLTPGDNPYM [D6G]	3.51
GRKKYEIDPRNGIPKLTPGDNPYM [D6E]	3.4
GRKKYSIDPRNGIPKLTPGDNPYM [D6S]	3.4
GRKKYFIDPRNGIPKLTPGDNPYM [D6F]	2.51
GRKKYYIDPRNGIPKLTPGDNPYM [D6Y]	3.12
GRKKYVIDPRNGIPKLTPGDNPYM [D6V]	2.52

Variant	protein stability index
GRKKYMIDPRNGIPKLTPGDNPYM [D6M]	3.01
GRKKYHIDPRNGIPKLTPGDNPYM [D6H]	3.35
GRKKYQIDPRNGIPKLTPGDNPYM [D6Q]	2.94
GRKKYIIDPRNGIPKLTPGDNPYM [D6I]	2.57
GRKKYTIDPRNGIPKLTPGDNPYM [D6T]	3.16
GRKKYKIDPRNGIPKLTPGDNPYM [D6K]	3.33
GRKKYDIDPRNGIKKLTPGDNPYM [P14K]	3.44
GRKKYDIDPRNGIEKLTPGDNPYM [P14E]	4.16
GRKKYDIDPRNGIRKLTPGDNPYM [P14R]	2.99
GRKKYDIDPRNGIAKLTPGDNPYM [P14A]	3.52
GRKKYDIDPRNGINKLTPGDNPYM [P14N]	3.55
GRKKYDIDPRNGIQKLTPGDNPYM [P14Q]	3.42
GRKKYDIDPRNGIIKLTPGDNPYM [P14I]	2.96
GRKKYDIDPRNGILKLTPGDNPYM [P14L]	2.94
GRKKYDIDPRNGIFKLTPGDNPYM [P14F]	2.4
GRKKYDIDPRNGIYKLTPGDNPYM [P14Y]	3.03
GRKKYDIDPRNGIVKLTPGDNPYM [P14V]	3.36
GRKKYDIDPRNGIMKLTPGDNPYM [P14M]	3.05
GRKKYDIDPRNGIGKLTPGDNPYM [P14G]	3.38
GRKKYDIDPRNGITKLTPGDNPYM [P14T]	3.27
GRKKYDIDPRNGIWKLTPGDNPYM [P14W]	2.9
GRKKYDIDPRNGICKLTPGDNPYM [P14C]	2.95
GRKKYDIDPRNGISKLTPGDNPYM [P14S]	3.3
GRKKYDIDPRNGIHKLTPGDNPYM [P14H]	3.51

Variant	protein stability index
GRKKYDIDPRNGIDKLTPGDNPYM [P14D]	3.66
GRKKYDIDPINGIPKLTPGDNPYM [R10I]	3.57
GRKKYDIDPKNGIPKLTPGDNPYM [R10K]	3.92
GRKKYDIDPGNGIPKLTPGDNPYM [R10G]	3.68
GRKKYDIDPANGIPKLTPGDNPYM [R10A]	3.48
GRKKYDIDPPNGIPKLTPGDNPYM [R10P]	3.29
GRKKYDIDPHNGIPKLTPGDNPYM [R10H]	3.4
GRKKYDIDPMNGIPKLTPGDNPYM [R10M]	3.03
GRKKYDIDPYNGIPKLTPGDNPYM [R10Y]	3.1
GRKKYDIDPDNGIPKLTPGDNPYM [R10D]	4.41
GRKKYDIDPFNGIPKLTPGDNPYM [R10F]	2.7
GRKKYDIDPENGIPKLTPGDNPYM [R10E]	4.19
GRKKYDIDPTNGIPKLTPGDNPYM [R10T]	3.81
GRKKYDIDPVNGIPKLTPGDNPYM [R10V]	2.8
GRKKYDIDPWNGIPKLTPGDNPYM [R10W]	2.56
GRKKYDIDPNNGIPKLTPGDNPYM [R10N]	3.23
GRKKYDIDPCNGIPKLTPGDNPYM [R10C]	3.77
GRKKYDIDPQNGIPKLTPGDNPYM [R10Q]	4.14
GRKKYDIDPLNGIPKLTPGDNPYM [R10L]	3.53
GRKKYDIDPSNGIPKLTPGDNPYM [R10S]	3.65
